Measurements from publication PMC12443421 (2025).

Legend:
[1] = target: wild-type unmodified 147 bp nucleosome (nucleosome core particle) (human, UniProt P04908 1-130; P62807 1-126; Q71DI3 1-136; P62805 1-103)
[2] = target: wild-type 185 bp nucleosome (with symmetric flanking DNA) (human, UniProt P04908 1-130; P62807 1-126; Q71DI3 1-136; P62805 1-103)

Kd [1]: 4 µM
Kd [2]: 3 µM
B1: KDM5A^CAT (lysine demethylase 5A, residues 1-801) (domain or fragment)
chain: MAGVGPGGYAAEFVPPPECPVFEPSWEEFTDPLSFIGRIRPLAEKTGICKIRPPKDWQPPFACEVKSFRFTPRVQRLNELEAMTRVRLDFLDQLAKFWELQGSTLKIPVVERKILDLYALSKIVASKGGFEMVTKEKKWSKVGSRLGYLPGKGTGSLLKSHYERILYPYELFQSGVSLMGVQMPNLDLKEKVEPEVLSTDTQTSPEPGTRMNILPKRTRRVKTQSESGDVSRNTELKKLQIFGAGPKVVGLAMGTKDKEDEVTRRRKVTNRSDAFNMQMRQRKGTLSVNFVDLYVCMFCGRGNNEDKLLLCDGCDDSYHTFCLIPPLPDVPKGDWRCPKCVAEECSKPREAFGFEQAVREYTLQSFGEMADNFKSDYFNMPVHMVPTELVEKEFWRLVSSIEEDVIVEYGADISSKDFGSGFPVKDGRRKILPEEEEYALSGWNLNNMPVLEQSVLAHINVDISGMKVPWLYVGMCFSSFCWHIEDHWSYSINYLHWGEPKTWYGVPSHAAEQLEEVMRELAPELFESQPDLLHQLVTIMNPNVLMEHGVPVYRTNQCAGEFVVTFPRAYHSGFNQGYNFAEAVNFCTADWLPIGRQCVNHYRRLRRHCVFSHEELIFKMAADPECLDVGLAAMVCKELTLMTEEETRLRESVVQMGVLMSEEEVFELVPDDERQCSACRTTCFLSALTCSCNPERLVCLYHPTDLCPCPMQKKCLRYRYPLEDLPSLLYGVKVRAQSYDTWVSRVTEALSANFNHKKDLIELRVMLEDAEDRKYPENDLFRKLRDAVKEAETCASVAQLL
